Experimental data published in US20150044137A1.
Where a chain is given by its changes, count along the chain named.

Assays:
RSC3 probe [1] = test: ELISA-type plate assay (OD450), mAb titrated on RSC3 [panel VRC13d]
RSC3 probe [2] = test: ELISA-type plate assay (OD450), mAb titrated on RSC3 [panel VRC13b]
RSC3 probe [3] = test: ELISA-type plate assay (OD450), mAb titrated on RSC3 [panel VRC13c]
RSC3 probe [4] = test: ELISA-type plate assay (OD450), mAb titrated on RSC3 [panel VRC13e]
RSC3 probe [5] = test: ELISA-type plate assay (OD450), mAb titrated on RSC3 [panel VRC13f]
RSC3 probe [6] = test: ELISA-type plate assay (OD450), mAb titrated on RSC3 [panel VRC13g]

B1: VRC13d (antibody, V domains shown)
VH: QVQLVQSGAVVKSPGSSAKLSCRLLGDEFGTYFISWIRQAPGRGLEWVGGIVPHSQLQSSAQKFHGRFFITGGVTPPIIFLQLTNVTFEDTGTYFCARERGRHRDPKTGKSLRGRYFDFWGRGTGVTVSP
VL: QSVLTQPAFVSASPGQSITLSCNLGTDYVSWYQQRPSSAPRLIIFDVKNRPSGVSDRFSGYNSDTAAFLTISGLQPEDEAEYYCTSWPYNFGPGTKVDVT
Binder B1 has an EC50 (read off the curve) (RSC3 probe [1]) of 0.02 µg/mL.

B2: VRC13b (antibody, V domains shown)
VH: QVQLVQSGTALKSPGSSAKLSCTVLGDEFGTYFISWIRQAPGQGLEWVGGIVPHSQLQSSAQKFHGRIIISAGAGVTPPVVSLQLTNLTFEDTGTYFCARERGRHRDPKTGDALRGRYFDFWGRGTGVSVSA
VL: QSVLTQPAFVSGSPGQSITLSCTLGTEDVSWYQQRPNSAPRLIIFDVKKRPSDVSDRFSGHNSDTAAFLTISELRPEDEAEYFCTSWPYRFGRGTKVDVA
In the case of B2, the EC50 (read off the curve) (RSC3 probe [2]) is reported as 0.02 µg/mL.

B3: VRC13c (antibody, V domains shown)
VH: QLQLDQPGAAMKSLGSSLTITCRVSGDDLGSFHFGTYFMIWVRQGPGQGLEYMGGILPSTKTPTYAHKFRGRVSISAPGVPPVLSLALTNLTYDDTATYFCARERGRHFEPKNRDHLEGKFLDLWGRGTFVRVSP
VL: QSVLTQPASVSGSPGQSINISCAGRSDRVSWYQQRPNGVPKLLLFDVYRRPSGVSDRFSGSHSDDTAFLTISGLQTDDEADYYCTSHPYAFGPGTKVNVL
For B3, the EC50 (read off the curve) (RSC3 probe [3]) was 0.02 µg/mL.

B4: VRC13e (antibody, V domains shown)
V domain 1: QPYIVQSGPAVKGAGSSVTVTCKVDGDDDGIFSFGTYFMVWVRQAPGQGLQYMGGLVPSYAPTYAHKFEGRITISAAGTPPVVSLTLLNLTNDDAATYFCARERGRHYDSKTRENRRGRYFDMWGRGTRITVSP
V domain 2: QSVLTQPASVSGSPGQTISISCSGTFGSDSVSWYQQYPNSAPTLIIFDVHRRPSGISTRFSGSTSGDTASLTISTLHREDEAYYYCTSHPYDFGGGTYVIVL
Binder B4 has an EC50 (read off the curve) (RSC3 probe [4]) of 0.02 µg/mL.

B5: VRC13f (antibody, V domains shown)
V domain 1: B4 V domain 1 with K23R, S33N, L88I, D93A
V domain 2: B4 V domain 2 with Y37F, Y83F
Work on B5 yielded an EC50 (read off the curve) (RSC3 probe [5]) of 0.02 µg/mL.

B6: VRC13g (antibody, V domains shown)
VH: QIELRQSGAAMKSPGSSVKLSCTVLGENFGTYFISWIRQAPGQGLEWVGGIVPHSQLQSSAQKFHGRIKISGGGTPPVVSLELTNVTFDDTGTYFCARERGRHVEPKTGDRLAGRYFDIWGRGTGLRVSP
VL: QSVLTQPAFVSGSPGQSITISCTVGTTDVSWYQQRPNSAPRLIIFDVKKRPSGVSDRFSGSSSDNAAFLTIAGLRPEDEAEYYCTSWPYRFGRGTKVDVG
Binder B6 has an EC50 (read off the curve) (RSC3 probe [6]) of 0.02 µg/mL.
